# Data reported in patent US7132401B2, “Beta-secretase substrates and uses thereof” (Merck & Co., Inc., priority 2002, dated 2006).
# Target: β-secretase (Homo sapiens, UniProt P56817)
# Experiment: β-secretase cleavage of peptide substrates and peptide libraries followed by LC/MS
# Assay type: biochemical
# Conditions: for Relative rates of hydrolysis: hydrolysis by β-secretase, Swedish mutant EVNLDAEF (SEQ ID NO: 257) = 1, each peptide 1 μM, pH 4.5, 37° C.; for rate of hydrolysis by β-secretase, times faster than the Swedish mutant sequence (SEQ ID NO: 257): relative to Swedish mutant APP sequence, peptides incubated simultaneously with β-secretase; for rate of cleavage (depletion of full length substrate) of P1′ peptide library components: P1′ peptide library treated with β-secretase, FIG. 2; for formation of C-terminal cleavage products from the P1′ peptide library: FIG. 3
# Method: Following synthesis and purification, each of the eight peptide libraries was incubated with the enzyme β-secretase and the relative rates of cleavage of each individual peptide library component was followed with liquid chromatography/mass spectrometry (LC/MS) with analysis of both the depletion of the full length peptide substrate, as well as the formation of peptide cleavage fragments. The enzyme β-secretase was incubated at concentrations ranging from 5 to 50 nM at pH 4.5 with each of the peptide libraries and/or mixtures of synthetic peptide substrates.
# The mixtures of substrates and enzyme were incubated in an Agillent Technology 1100 series liquid chromatograph with a temperature controlled autosampler. The temperature for all β-secretase enzymatic assays was held constant at 37° C. A 100 μl aliquot of each reaction mixture was injected onto a 1×50 mm C18 reverse phase 1c column (Metachem Technologies Inc., Torrance, Calif.) every two hours to monitor reaction progress. After injection, a highly optimized solvent gradient was delivered to the column to maximize resolving power for each of the substrate library components. […] After the LC/MS run, the data were processed by selected-ion chromatograms for each of the peptide substrate library components by extracting 0.5 Da mass windows surrounding the calculated mass values of each of the peptides.
# β-secretase, sequence (P56817 46-501): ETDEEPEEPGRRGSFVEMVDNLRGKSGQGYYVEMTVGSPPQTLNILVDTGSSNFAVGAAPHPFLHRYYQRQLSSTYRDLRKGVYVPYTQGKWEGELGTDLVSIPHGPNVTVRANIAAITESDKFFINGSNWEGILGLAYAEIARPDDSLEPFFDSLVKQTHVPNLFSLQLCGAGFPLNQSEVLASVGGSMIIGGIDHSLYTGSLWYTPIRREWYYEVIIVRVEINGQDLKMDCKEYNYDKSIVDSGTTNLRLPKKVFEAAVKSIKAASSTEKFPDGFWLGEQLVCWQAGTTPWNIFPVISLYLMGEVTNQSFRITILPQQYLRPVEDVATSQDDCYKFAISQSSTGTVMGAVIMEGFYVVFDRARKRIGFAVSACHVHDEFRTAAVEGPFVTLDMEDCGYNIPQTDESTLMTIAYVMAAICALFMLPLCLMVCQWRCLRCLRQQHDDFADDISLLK
Substance,Relative rates of hydrolysis,"rate of hydrolysis by β-secretase, times faster than the Swedish mutant sequence (SEQ ID NO: 257)",rate of cleavage (depletion of full length substrate) of P1′ peptide library components,formation of C-terminal cleavage products from the P1′ peptide library
EVNFAAEF (Beta-Secretase Cleavage Site),17,,,
EVNFAVEF (Beta-Secretase Cleavage Site),30,roughly 30 times,,
EVNFEAEF (Beta-Secretase Cleavage Site),17,,,
EVNFEVEF (Beta-Secretase Cleavage Site),60,60 times,,
"EVNLDAEF (Beta-Secretase Cleavage Site) [8-mer of Swedish mutant APP around the β-secretase cleavage site, reference compound]",1,,intermediate,less conducive to β-secretase hydrolysis than either Glu or Ala
P1′=Glu: P1′ peptide library component: Swedish mutant APP 8-mer with Glu at P1′ (EVNLEAEF),,,most rapidly hydrolyzed,more rapid and comparable rates of formation
P1′=Gly: P1′ peptide library component: Swedish mutant APP 8-mer with Gly at P1′ (EVNLGAEF),,,not cleaved,
P1′=Pro: P1′ peptide library component: Swedish mutant APP 8-mer with Pro at P1′ (EVNLPAEF),,,not cleaved,
